According to publication PMC2901902 (Nature, 2010):

Molecular target: human DPF3b PHD12 (tandem PHD finger) (Homo sapiens, UniProt Q92784)
Experiment: DPF3b PHD12 binding to modified histone peptides
Conditions: H3 peptide residues 1–20, versus H3K14ac

human DPF3b PHD12 (tandem PHD finger), sequence (Q92784 261-372): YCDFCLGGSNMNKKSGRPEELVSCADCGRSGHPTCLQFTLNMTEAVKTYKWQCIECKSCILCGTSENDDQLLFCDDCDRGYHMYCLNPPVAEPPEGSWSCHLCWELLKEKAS

H3 peptide (residues 1–20): H3 peptide (residues 1–20), not acetylated at K14
reduction in affinity when H3 is not acetylated at K14: 4 fold
